Tested on: MS2 coat protein
Test: apparent KD of MS2 coat protein; designed switch direction (-1 OFF switch, 1 ON switch): -1; higher = weaker reporter binding
In short: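 SNAP-549-labelled MS2 coat protein was titrated, doubling from 0.7 or 1.5 nM to 3 µM, over designed RNA switches transcribed on Illumina chips by stalled E. coli RNA polymerase. Runs were done without input, with 200 uM small-molecule ligand, or with an oligonucleotide input. Apparent KD is the per-design median over clusters of curve-fitted normalised fluorescence.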

[1] = input ligand: microRNA oligo, concentration not stated

ACACCUCACGUCAGGAUAUCUAUCUCGAGUGAGGAAGAGAAGGGACAUGAGGAUCACCCAUGUAUAGAAAGAAU [Usissodi] (Eterna round: R97, puzzle: Brourd's mod of Exclusion 4)
apparent KD of MS2 coat protein (input ligand: FMN 200 uM): 125 nM | apparent KD of MS2 coat protein (input ligand: none): 27.2 nM

ACAGGUUAAGGAUAUACAUGAGGAUCACCCAUGUCGAGUAUCUUGUCAUGCCGCCCAUGUAGAAGGUAACAUGG [Geale] (puzzle: Exclusion 3)
apparent KD of MS2 coat protein (Eterna round: R95, input ligand: microRNA oligo, concentration not stated): 14.3 nM

ACAGUACAUGAGGAUCACCCAUGUGAGGAUAUAGUAGUAUGGGAGACCAUACUAAAGACUAGAAGGCGCGGGCA [Exclusion 1 S1] (Eterna round: R97, puzzle: Exclusion 1)
apparent KD of MS2 coat protein (input ligand: FMN 200 uM): 43.6 nM | apparent KD of MS2 coat protein (input ligand: none): 67 nM

ACAGUGUUAGGAUAUCUGAGAAUUAGUCUCGACUAGUCGAAGGAGAAGGAACAUGAGGAUCACCCAUGUAGAUC [EX4 #76] (Eterna round: R97, puzzle: Exclusion 4)
apparent KD of MS2 coat protein (input ligand: FMN 200 uM): 295 nM | apparent KD of MS2 coat protein (input ligand: none): 41.6 nM

ACAUGACUGCUAGGAUAUAGAUGACAUGAGGAUCACCCAUGUUGUCCCAUGUUGAUGGAAACCGACUAGAAGGAGCAGCAUAUG [Ex NG2 #11] (Eterna round: R96, puzzle: Exclusion NG 2)
apparent KD of MS2 coat protein (input ligand: FMN 200 uM): 47.4 nM | apparent KD of MS2 coat protein [1]: 22.9 nM | apparent KD of MS2 coat protein (input ligand: none): 35 nM

ACAUGAGGAUCACCCAUGUAAACAUAAUGGCUCAUGUAGAGUCAGGAUAUGCGUGGCGAACUCGCGCAGAAGGGACAAGACUGG [Deportation 23 - Jieux - Exclusion NG 3] (Eterna round: R96, puzzle: Exclusion NG 3)
apparent KD of MS2 coat protein (input ligand: FMN 200 uM): 26.7 nM | apparent KD of MS2 coat protein [1]: 20.6 nM | apparent KD of MS2 coat protein (input ligand: none): 26.4 nM

ACAUGAGGAUCACCCAUGUAAGGUUGGUUUUCUCCGGCUGUUGAGGAUAUAGUCCGGUAUCCGCGCUAGAAGGUGAGGGUUGGC [Aenatbe mod 10] (Eterna round: R96, puzzle: Exclusion NG 3)
apparent KD of MS2 coat protein (input ligand: FMN 200 uM): 73 nM | apparent KD of MS2 coat protein [1]: 71.2 nM | apparent KD of MS2 coat protein (input ligand: none): 77.2 nM

ACAUGAGGAUCACCCAUGUACAGGGUGUAGUUUCAUUGUUUGAAGGAUAUACUUAGUUAGUUGUUGUAGAAGGUCAUAUUUCAU [JR_ExcNG3_Sub001] (Eterna round: R96, puzzle: Exclusion NG 3)
apparent KD of MS2 coat protein (input ligand: FMN 200 uM): 126 nM | apparent KD of MS2 coat protein [1]: 500 nM | apparent KD of MS2 coat protein (input ligand: none): 1040 nM

ACAUGAGGAUCACCCAUGUACAGGGUUUAGCCUCAUUGUUUGAAGGAUAUACUCAGUUAGUUGUUGUAGAAGGUCACCUUUUAU [JR_ExcNG3_Sub003] (Eterna round: R96, puzzle: Exclusion NG 3)
apparent KD of MS2 coat protein (input ligand: FMN 200 uM): 3450 nM | apparent KD of MS2 coat protein [1]: 1730 nM | apparent KD of MS2 coat protein (input ligand: none): 1360 nM

ACAUGAGGAUCACCCAUGUACAGGGUUUAGUUUCAUCGUUUGAAGGAUAUACUCCGUUAGUUGUCGUAGAAGGUCACAUUUUGG [JR_ExcNG3_Sub006] (Eterna round: R96, puzzle: Exclusion NG 3)
apparent KD of MS2 coat protein (input ligand: FMN 200 uM): 189 nM | apparent KD of MS2 coat protein [1]: 120 nM | apparent KD of MS2 coat protein (input ligand: none): 145 nM

ACAUGAGGAUCACCCAUGUACAGGGUUUAGUUUCAUCGUUUGAAGGAUAUACUCCGUUAGUUGUUGUAGAAGGUCACAUUUUGG [JR_ExcNG3_Sub005] (Eterna round: R96, puzzle: Exclusion NG 3)
apparent KD of MS2 coat protein (input ligand: FMN 200 uM): 167 nM | apparent KD of MS2 coat protein [1]: 89.2 nM | apparent KD of MS2 coat protein (input ligand: none): 142 nM

ACAUGAGGAUCACCCAUGUCAGGCAGGUCCACUCCGGCUGUUGAGGAUAUAGCCCGGUAUCCGCGCUAGAAGGUGAGGGCCGGC [Aenatbe mod 26] (Eterna round: R96, puzzle: Exclusion NG 3)
apparent KD of MS2 coat protein (input ligand: FMN 200 uM): 15.3 nM | apparent KD of MS2 coat protein [1]: 15.7 nM | apparent KD of MS2 coat protein (input ligand: none): 21.6 nM

ACAUGAGGAUCACCCAUGUCAGGUUGGUUCUCUCCGGCUGUUGAGGAUAUAGUCCGGUAUCCGCGCUAGAAGGUGAGGGCUGGC [Aenatbe mod 14] (Eterna round: R96, puzzle: Exclusion NG 3)
apparent KD of MS2 coat protein (input ligand: FMN 200 uM): 19.6 nM | apparent KD of MS2 coat protein [1]: 20.1 nM | apparent KD of MS2 coat protein (input ligand: none): 25.1 nM

ACAUGAGGAUCACCCAUGUCCGGCUGGUCCGUCUCGGCUGUCGAGGAUAUAGCUUGGUGUCCGCGCUAGAAGGUGGGAGCCGGU [Aenatbe mod 70] (Eterna round: R96, puzzle: Exclusion NG 3)
apparent KD of MS2 coat protein (input ligand: FMN 200 uM): 61 nM | apparent KD of MS2 coat protein [1]: 40.2 nM | apparent KD of MS2 coat protein (input ligand: none): 56.6 nM

ACAUGAGGAUCACCCAUGUCCGGCUGGUCCGUCUCGGCUGUCGAGGAUAUGGCUCGGUGUCCGCGCUAGAAGGUGGGAGCCGGU [Aenatbe mod 74] (Eterna round: R96, puzzle: Exclusion NG 3)
apparent KD of MS2 coat protein (input ligand: FMN 200 uM): 100 nM | apparent KD of MS2 coat protein [1]: 54 nM | apparent KD of MS2 coat protein (input ligand: none): 103 nM

ACAUGAGGAUCACCCAUGUCCGGCUGGUCUGUCUCGGCUGUCGAGGAUAUAGCACGGUAUCCGCGCUAGAAGGCGGGAGCCGGC [Aenatbe mod 89] (Eterna round: R96, puzzle: Exclusion NG 3)
apparent KD of MS2 coat protein (input ligand: FMN 200 uM): 99.5 nM | apparent KD of MS2 coat protein [1]: 34.6 nM | apparent KD of MS2 coat protein (input ligand: none): 47.4 nM

ACAUGAGGAUCACCCAUGUCUGGCUGGUCCGCUCCGGCUGUUGAGGAUAUAGCUCGGUGUCCGCGCUAGAAGGUGAGGGCUGGC [Aenatbe mod 34] (Eterna round: R96, puzzle: Exclusion NG 3)
apparent KD of MS2 coat protein (input ligand: FMN 200 uM): 32.4 nM | apparent KD of MS2 coat protein [1]: 19.5 nM | apparent KD of MS2 coat protein (input ligand: none): 31.9 nM

ACAUGAGGAUCACCCAUGUCUGGCUGGUCCGUCUCGGCUGUCGAGGAUAUGGCUCGGUGUCCGCGCUAGAAGGCGGGAGCUGGA [Aenatbe mod 78] (Eterna round: R96, puzzle: Exclusion NG 3)
apparent KD of MS2 coat protein (input ligand: FMN 200 uM): 193 nM | apparent KD of MS2 coat protein [1]: 43 nM | apparent KD of MS2 coat protein (input ligand: none): 68.2 nM

ACAUGAGGAUCACCCAUGUGAAAACAAUGGCUGACUUUGAGAUAGGAUAUAUGUGCAUAUCAAACAUAGAAGGGUCAUUACUGG [Deportation 90 - Jieux - Exclusion NG 3] (Eterna round: R96, puzzle: Exclusion NG 3)
apparent KD of MS2 coat protein (input ligand: FMN 200 uM): 41.4 nM | apparent KD of MS2 coat protein [1]: 25.9 nM | apparent KD of MS2 coat protein (input ligand: none): 47.2 nM

ACAUGAGGAUCACCCAUGUGAACGAAAAGGCUCAUGUAGAGUGAGGAUAUGUGAGACGAACGAGAACAGAAGGCACAAGACAGG [Deportation 1 - Jieux - Exclusion NG 3] (Eterna round: R96, puzzle: Exclusion NG 3)
apparent KD of MS2 coat protein (input ligand: FMN 200 uM): 20.7 nM | apparent KD of MS2 coat protein [1]: 19.5 nM | apparent KD of MS2 coat protein (input ligand: none): 35.4 nM

Source: the supplement of paper PMC9170038
